B1: recombinant C. albicans PPTB (CaO19.4812), expressed from pET43.1 (protein)
chain: MPKVGTVLGIGVDIVNSVRFERLLTAKSTSFGTRLSKRILHPEHELPLFQQMHSQRQAQYLTGSWAAKEALFKTLDLNSQKEFNFNQWYRFHDSNGKPFIWNDRYKLSDEEFHLSISHDDSLVIATVLRQKVYQI
B2: recombinant A. fumigatus PPTB (phosphopantetheinyl transferase B), PPTB-NusA fusion protein (protein)
chain: MKLIPFPYPLNIGTDVVHLPRILRLINRPDYFHRFTRRILHEQEQRDFRTRFSLPPPSSGAEKTGLNPITPDMARWLAGRFAAKEAARKAAPAGASSLGWKDVIVRVGEADKGRPEIVYLDPMGCGETGGGRVGKLSISHDGDYVVATVLAAG

Key:
[1] = target: T1, recombinant C. albicans ACPg (CaO19.8439), pET30 fusion protein
T1 chain: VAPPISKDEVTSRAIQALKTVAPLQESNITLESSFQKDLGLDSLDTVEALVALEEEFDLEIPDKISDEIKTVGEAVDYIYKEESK

[2] = target: T2, recombinant A. fumigatus ACP (acyl carrier protein), truncated form, pET30 fusion protein
T2 chain: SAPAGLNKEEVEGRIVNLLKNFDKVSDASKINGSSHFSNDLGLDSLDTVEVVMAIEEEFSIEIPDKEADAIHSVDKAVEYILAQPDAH

[3] = target: T3, recombinant C. albicans ACPe (CaO19.9975), pET30 fusion protein
T3 chain: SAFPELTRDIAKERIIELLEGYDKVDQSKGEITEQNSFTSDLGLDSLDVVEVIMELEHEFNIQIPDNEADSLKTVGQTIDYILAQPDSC

Protein	pantetheinylation of ACP with CoA-Bodipy TMR, SDS-PAGE gel under UV light [1]	PPTB activity assay with ACP as substrate [2]	pantetheinylation of ACP with CoA-Bodipy TMR, SDS-PAGE gel under UV light [2]	pantetheinylation of ACP with CoA-Bodipy TMR, SDS-PAGE gel under UV light [3]	labelling of ACP with CoA-Bodipy TMR, resolved on SDS-PAGE gel [2]
B1	The C. albicans PPTB pantetheinylated ACPg strongly	Assays for C. albicans PPTB activity using A. fumigatus ACP as a substrate gave a poor signal	ACPe and the A. fumigatus ACP were pantetheinylated weakly	ACPe and the A. fumigatus ACP were pantetheinylated weakly	
B2	The A. fumigatus PPTB was able to pantetheinylate both A. fumigatus ACP and ACPg		The A. fumigatus PPTB was able to pantetheinylate both A. fumigatus ACP and ACPg	whereas ACPe was pantetheinylated weakly	recombinant PPTB was able to label recombinant ACP (resolved on SDS-PAGE gel) in the presence of magnesium ions and CoA-Bodipy TMR

Source: patent US20120196763
